We go through 15 sequences from a protein production outcome set (Wang et al. 2014).

The data set is described as follows: label from the status in PepcDB records.
Turning to “MGLPNLSRFREKCCYCYRSIGDGISVCDCGFSFCEKHRGIHLGKSGCRIVFDIKEVGSDLGIEIKNAMLGEEEVEELRRRMEILIKPGDEDERVLSRDEEVRCVHGCPEGPSSIEMGNIGGLKCNLCDVKTRLWVCFSCGYVGCGRMQYGAEGNGHAKSHYEETQHNVFVLVPSLLKEDCEIFCYLCDSNIRSRYNSAENSVTIDFGGADGKTEERSVRKVMSCRGIAEPEFLEKKRAPESKGESVPSPYVGIINSGNTCYISSVIHMVGYAVSKEEFDLEQHFEICYMKNPLECFFCQLMRVLSKMKETKDNEGVNRISILDLIMLIWRDMPMFGKFAQQDAHEFLLFLLEKIREGERSYLIPPITSLFEFEVGRRVSCSGCMDDSTSYESMLMICTFLKGNIRKSVEMFFLPDEWSCECGGKKKVSRFITTLPKYLIIQVGRYSYNNYKVEKIKDKIEMRSIKLGSFMSKDEADRSLVRKLVDSGYPEEDAAKALGIFWNDESKARSLLENHAMMDMRTDSKYRVVGCINHSGDNIKAGHYTWWVYDNGKCFKIDDTTVLNSNVEVLEDGYIFLFK”, the protein production result is on record as “failed”.
As for “MLNADVKETIHYVDENGKELAGTYTKDVHYTRTATVHYDQNGNATVTYGEWKADGSFDKVANPDIDGYFTLDKGVDGKTVTDPQNQADFVENVIYYKTDQNVTPLEHHHHHH”, the entry is “not failed”.
As for “MSETVTQVNETTQQIVRSRTCGLKDFYIALVQSNTATAYTAGTPVKLARAIKAKIDEKWTSEKIYSDDNTEEVITSYEGTDVELEINALAPQDRVILFGQLYEKGFLRKSSDDRAPEVAVGWRERKLNGKYEFKWLYVGKFAEGISEEASTLEHHHHHH”, the entry is “not failed”; as for “MVRVFNHWFSPRKAFYFFAEETVLVVALLAGASLGPVAAQATGAAAPIAPAVLRAGLASLFFAGALYLGDLYDLHAAVRDRADGRRLLRALGVATIALAIADLSLDLVLPGWMLHRSVVLAAAGGALGVIGARALMPAVVGAPTRVLFLGAGPRARDLARAVEREADGLWAVAGFVVPEGSRAPAVVPPEALRQGPVLDVVRQARAQVVVVAMEDRREGLPVDALLALRTRGLRVVDDVGFAEATLQRIPLALVRPSALIFDEGFRVSRLTRTVKRALDLGVSAVGLLLGAPVMAAVAAAIWLSDGRPLLYSQERTGRGGRPYRIWKFRTMRRDAEKLGAAWATDDDPRVLPVGRFLRRARLDELPQLWNVLGGHMSLVGPRPERAVFLSELKARWPLFALRELVKPGLTGWAQLRYGYGSTMEEQAKKLEYDLYYIKNTTLFLDLVCLLATAKVVLLGRGAR”, “failed”; as for “LRVFSSDGKLIAEFGEMRRTPIRFAEIPPNFINALLSAEDDNFANHYGVDPSSLMRAATQLVKSGHIQSGGSTITMQVAKNFFLTSERSFSRKTTEILLALQIERQLTKDEILELYVNKIYLGNRAYGIEAAAQVYYGKSIRDVSLAQMAMIAGLPKAPSRFNPLANA”, “failed”.
In the case of “MVERLLEIIERSLRKCPWLEKQSIETLLEALASEIEEVAEAVKKNDLANLEEEIGDLIYDALLVAAVAQRDYGIDLESAIQKVVEKISHRKPWLFWEEKISLEEAEKIWKERKKKI” it was “not failed”.
Consider “MKEQSITKGFAILSIASIVAKLLSLIYVPFLTRIVGSVGMGIYGKTYDIFVFVYALTNVGLQTAISKYVSELDAVGNYKDALRAFKISRAFLLVVGTIFTIVLMLSANFIASMSQTPQMVYPIIFLAPTIMITTVLVTYKGYFQGRSQATPIAIATVIEQVANVFLSLLCAYFLIKKSVSLGVAGGTVGSSAGALMAVLYLIYIYNIYGVEKEAKRKQEPGVRRITGKKIARTLFKYGLPITLSTGLQNLGNIIDMLTVSNRLVDAANFSQSDANALYGYFSTRYKILINVPMVFITSLGYMALPAISRAYALKDKKEIKSKINFSMRVTYLLSIPSAFGLALLSENIYRYIFADSNGYKMMVIGAAMIPLTAIVLMQNVILQSVSQFYYVLFTLALSIVVKFTLNMTLVANPDINIYGAVISGMVAFVISLVLNHFRMKKTLKMKISMLKYALKPLLASIYMGIGIILSKYVISLFIDFDKLSLILGIAILLVIIAIGAFMYLHAIIILGGIKKEDIEEISPKLLRVMPRFLRKNIK”, for which the protein production result is given as “failed”.
In the case of “MFLSVVTVAFRNYEGVVKTWRSLRNLARDPGLSFEWIVVDGGSEDGTREFLRKRHGEFNLRFISEKDRGIYDAMNKGIALAQGRYTLFLNSGDAFHDDAALFVRQLARQKGEAMYIGDALLDFGGGHKIRRKAKPGYYIYHSLPASHQAIFFPTAALKKYPYDLQYHVSSDYALAARLYKAGYPFRRINGLVSEFSMGGVSTSNNLELCQDAKNVQRKILRVPGFWAQLSYLLRLKTTGKTKARYNKVLEHHHHHH” it was “not failed”.
As for “MRQHGKVSEVTEKKTAVYVDDQQRILIRQLARSWLWRSELPTWLLIVTVYGGWFACVAGWRTLGLFPATLLLIWFTAWYMSLQHELIHGHPTRLAWFNQLLGTLPLAVWYPYGVYRDSHLAHHRNHLLTHPEDDPESYYVTAESWQRFSAWQRRLIHLRNTFWGRLLLAPMMDIIHTLNSALRAFREGDRRAIAMWSLHLLLLTGLLTWMAAQGFSPLWFVLAVSYPALALTKVRSFLEHRAADDPLARSVINEAGLPWRVLFLNLNYHAVHHDLPGVPWYALRQLYLHRQAAYLQRNQGFLVRGYGEWRRHFSRRAVAVNAHPGFGEQAQAGGEHG”, the entry is “failed”.
As for “MFKVGPIGSKQYYDKSWEEKGRNMISIFGILVHDGHVKANIQVRLNDDEYVTGLSGIFWERKVTSLTFHTNQGKHGPFCNGTGYSSSYMADYKKEIDVKIRDRREFGGFFGSFDDEFDGLTSIGIYVYPTYDNKPTLNQAWDPLYAFAHNQIPTIADGIPVMHIRYKPKLKDRIFSKLDFKRAMLCLIKVFLD”, the entry is “failed”.
Turning to “TRGSAQMQPYFEELLLSLGPILKNITNSMVISGHTDSTPYAGSLFTNWELSSERALLARRVLERGGVKRDQVIQVTGMADQVPYITSDTAAAANRRIEALILTS”, the protein production result was “failed”.
In the case of “MKLETIDYRAADSAKRFVESLRETGFGVLSNHPIDKELVERIYTEWQAFFNSEAKNEFMFNRETHDGFFPASISETAKGHTVKDIKEYYHVYPWGRIPDSLRANILAYYEKANTLASELLEWIETYSPDEIKAKFSIPLPEMIANSHKTLLRILHYPPMTGDEEMGAIRAAAHEDINLITVLPTANEPGLQVKAKDGSWLDVPSDFGNIIINIGDMLQEASDGYFPSTSHRVINPEGTDKTKSRISLPLFLHPHPSVVLSERYTADSYLMERLRELGVL” it was “not failed”.
In the case of “MNFKKLSNAKVSVMAVVLSVGILSGYSALNKQVTLVVRGEERTISTFSSNVGDLLESQNISYDANDIVTLDENTKLSNGDKIEVIDVKEKTVVETKDIPFEVTVVEDGSLLKGDSKVKEEGKSGKSELIYKETYHNGKKVEKEFVKKVVKAEPVNKVVSKGTKVEMQVASSRGESSRRMASSSSSSSSSNNGKNMRVVATAYTGHSITATGTKPKWGTIAVDPKVIPYGTKVYIPQFDMVFTAEDCGGAIKGNKIDIYMNDSKTVYNWGRKTIDIRILK” it was “failed”; in that of “MRKIVLFGDSITAGYLDEAVSPVLVDLVKRDIAAMGLEEVAVINAGMPGDTTEDGLKRLNKEVLIEKPDEVVIFFGANDASLDRNITVATFRENLETMIHEIGSEKVILITPPYADSGRRPERPQTRIKELVKVAQEVGAAHNLPVIDLYKAMTVYPGTDEFLQADGLHFSQVGYELLGALIVREIKGRLKPKQA”, “not failed”; in that of “MIQAFLEKLPHLDVYGNPQYFFYLILAVLPIYIGLFFKKRFALYEIIFSLSFIVMMLTGSTFNQLKSLLAYVVGQSLLVFIYKAYRKRFNHTLVFYVTVCLSIFPLFLVKLIPAISEDGHQSLFGFLGISYLTFRAVAMIIEMRDGVLKEFTLWEFLRFLLFFPTFSSGPIDRFKRFNEDYINIPDRNELLDMLGQAIHYLMLGFLYKFILAYIFGSLIMPPLKELALEQGGVFNWPTLGVMYAFGFDLFFDFAGYTMFALAISNLMGIKSPINFDKPFKSRDLKEFWNRWHMSLSFWFRDFVFMRLVKLLVKNKVFKNRNVTSSVAYIINMLLMGFWHGLTWYYIAYGLFHGIGLVINDAWVRKKKNINKERRLAKKPLLPENKWTYALGVFITFNVVMFSFLIFSGFLDLLWFPQPHNK”, “failed”.
